From patent publication US6590086
Where “and” joins values, the source holds several entries; their conditions need not be identical. Equal entries are not always repeated.

Columns and labels:
[1] = target: SV40 large T antigen (SV40) (UniProt P03070); experiment: in vitro phosphorylation of the large T:Rb complex, immunoprecipitation with anti-large T antibody
[2] = target: SV40 large T antigen (SV40), P03070; experiment: as above; details: remark: other sources report otherwise

| Molecule | percent of the Rb protein released from large T by phosphorylation [1] [%] | percent of the Rb protein that remained bound after phosphorylation [2] |
| --- | --- | --- |
| RB-E (from UniProt P06400 2-928) | 70 |  |
| RB-H, P06400 2-928 (protein) PPKTPRKTAATAAAAAAEPPAPPPPPPPEEDPEQDSGPEDLPLVRLEFEETEEPDFTALCQKLKIPDHVRERAWLTWEKVSSVDGVLGGYIQKKKELWGICIFIAAVDLDEMSFTFTELQKNIEISVHKFFNLLKEIDTSTKVDNAMSRLLKKYDVLFALFSKLERTCELIYLTQPSSSISTEINSALVLKVSWITFLLAKGEVLQMEDDLVISFQLMLCVLDYFIKLSPPMLLKEPYKTAVIPINGSPRTPRRGQNRSARIAKQLENDTRIIEVLCKEHECNIDEVKNVYFKNFIPFMNSLGLVTSNGLPEVENLSKRYEEIYLKNKDLDARLFLDHDKTLQTDSIDSFETQRTPRKSNLDEEVNVIPPHTPVRTVMNTIQQLMMILNSASDQPSENLISYFNNCTVNPKESILKRVKDIGYIFKEKFAKAVGQGCVEIGSQRYKLGVRLYYRVMESMLKSEEERLSIQNFSKLLNDNIFHMSLLACALEVVMATYSRSTSQNLDSGTDLSFPWILNVLNLKAFDFYKVIESFIKAEGNLTREMIKHLERCEHRIMESLAWLSDSPLFDLIKQSKDREGPTDHLESACPLNLPLQNNHTAADMYLSPVRSPKKKGSTTRVNSTANAETQATSAFQTQKPLKSTSLSLFYKKVYRLAYLRLNTLCERLLSEHPELEHIIWTLFQHTLQNEYELMRDRHLDQIMMCSMYGICKVKNIDLKFKIIVTAYKDLPHAVQETFKRVLIKEEEYDSIIVFYNSVFMQRLKTNILQYASTRPPTLSPIPHIPRSPYKFPSSPLRIPGGNIYISPLKSPYKISEGLPTPTKMTPRSRILVSIGESFGTSEKFQKINQMVCNSDRVLKRSAEGSNPPKPLKKLRFDIEGSDEADGSKHLPGESKFQQKLAEMTSTRTRMQKQKMNDSMDTSNKEEK |  | 20% and 30% |
